For one molecule, isoprenaline Ki of DDM-solubilised β1AR-84 (alone […] µM), isoprenaline Ki of membrane-embedded β1AR-84 (alone […] µM) and isoprenaline Ki of β1AR-84 with 0.25 mM GTPγS (alone 3.0 µM) results are on record in patent publication US20190032033A1.

The assay deals with β1AR-84 (minimally thermostabilised turkey β1 adrenergic receptor construct) (turkey), P07700. Kind of assay: cell-based or functional assay.
Chain of β1AR-84 (minimally thermostabilised turkey β1 adrenergic receptor construct) (turkey), P07700 (P07700 other isoform, or with tags, fused parts or gaps): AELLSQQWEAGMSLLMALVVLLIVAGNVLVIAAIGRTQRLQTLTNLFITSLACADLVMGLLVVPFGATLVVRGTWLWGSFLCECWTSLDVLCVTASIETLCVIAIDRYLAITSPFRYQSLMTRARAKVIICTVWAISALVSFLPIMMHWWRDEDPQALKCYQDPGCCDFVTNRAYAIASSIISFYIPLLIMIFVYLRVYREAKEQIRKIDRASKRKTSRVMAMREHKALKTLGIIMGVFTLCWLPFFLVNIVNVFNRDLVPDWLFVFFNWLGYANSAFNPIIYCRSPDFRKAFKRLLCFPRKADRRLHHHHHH

B1: Mini Gs393, P04896 26-394 (protein)
chain: GIEKQLQKDKQVYRATHRLLLLGADNSGKSTIVKQMRILHGGSGGSGGTSGIFETKFQVDKVNFHMFDVGGQRDERRKWIQCFNDVTAIIFVVDSSDYNRLQEALNDFKSIWNNRWLRTISVILFLNKQDLLAEKVLAGKSKIEDYFPEFARYTTPEDATPEPGEDPRVTRAKYFIRDEFLRISTASGDGRHYCYPHFTCAVDTENARRIFNDCRDIIQRMHLRQYELL
For B1, the isoprenaline Ki of DDM-solubilised β1AR-84 (alone […] µM) worked out at 0.0047 µM, the isoprenaline Ki of membrane-embedded β1AR-84 (alone […] µM) came to 0.0036 µM and the isoprenaline Ki of β1AR-84 with 0.25 mM GTPγS (alone 3.0 µM) is 5.2 nM.
